Reference: article PMC2917394

Target: Fluorescein-labeled CD4 tail peptide (residue 403-419)
Test: other fluorescence titration; 1.0 uM fluorescein-labeled CD4 tail peptide in PBS, stirred cuvette, 25 C, 30 min incubation with Nef-His proteins at 0.01 to 10 uM in 0.5 ml; quenching of emission (excitation 492 nm, emission 516 nm) as percent reduction, average of three measurements

Row | Substance | percent quench of the peptide's fluorescence at 10 uM Nef-His [%]
1 | Nef (C55/A)-His, untreated (natural protein) | 10.6
2 | TPCK-modified Nef-His (natural protein) | 4.9
3 | Nef (wt)-His, unmodified (natural protein) | 11.6
4 | TPCK-treated Nef (C55/A)-His (natural protein) | 9.8
